± gives the uncertainty stated by the source.

The data set is described as follows: protein stability index of a GFP-peptide fusion (yeast GPS) (PSI 1-4); higher = more stable; sorted into four equal gates, so the index is relative within each strain. In a few lines:
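For each peptide, the protein stability index sums the read frequency in every gate after multiplying it by the gate number. Read frequencies came from plasmids that were PCR-amplified from each gate and Illumina-sequenced, with reads assigned to strains by barcodes. The gates were four equal bins of GFP/Cherry fluorescence ratio applied to mid-log yeast in leucine-free medium carrying a pooled library of tiled 17-residue yeast protein peptides fused downstream of GFP on a Cherry-expressing plasmid.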

For the sequence EENFEATRTLVASIQND [YCG1], the protein stability index was 3.03 ± 0.16 (doa10∆), 3.24 ± 0.11 (pdr5∆), 3 ± 0.14 (san1∆) and 2.71 ± 0.14 (ubr1∆).
EEPIKKLCYVLGVEDIT [RET1] returned a protein stability index (san1∆) of 3.08 ± 0.15.
With EEPSRVDPEQEAHNKAL [RPT4], the protein stability index was 3.4 ± 0.16 (doa10∆), 3.31 ± 0.1 (pdr5∆), 3.46 ± 0.063 (san1∆) and 3.23 ± 0.11 (ubr1∆).
As for EERFSELFKGYLADDID [RPL5], the protein stability index by setting is: (doa10∆) 3.05 ± 0.29; (pdr5∆) 3.27 ± 0.24; (san1∆) 3.3 ± 0.17; (ubr1∆) 3.01 ± 0.28.
As to EFIPHSTEYMMQFAKSK [RPN6], the protein stability index by setting is: (pdr5∆) 3.28 ± 0.17; (san1∆) 2.8 ± 0.1; (ubr1∆) 1.91 ± 0.14.
Taken in the same sequence, the figures for EFMAGFNIISMTLKEMY [SMC4] were 2.83 ± 0.24, 3.21 ± 0.11 and 3.21 ± 0.089.
On to EFYNEMHRPVHFLQFSE [PRP8], for which the protein stability index is, setting by setting: (doa10∆) 2.9 ± 0.086; (pdr5∆) 2.51 ± 0.089; (san1∆) 2.27 ± 0.067; (ubr1∆) 2.33 ± 0.058.
For EGDELENKTKKDNDKNL [SRB4] the same measures were 3.33 ± 0.078, 3.2 ± 0.077, 3.23 ± 0.055 and 3.27 ± 0.077.
For EGEAKQKRNAHGYFLQD [ITC1] the same measures were 3.18 ± 0.065, 3.4 ± 0.072, 3.35 ± 0.035 and 3.32 ± 0.043.
For the sequence EGEYELTEAVEDGPRPF [RPL5], the protein stability index is 3.31 ± 0.17 (pdr5∆) and 3.38 ± 0.066 (san1∆).
For the sequence EGFAADDEPTTPAELVG [FAS1], the protein stability index runs as follows: (doa10∆) 3.3 ± 0.09; (pdr5∆) 3.19 ± 0.092; (san1∆) 3.2 ± 0.071; (ubr1∆) 3.19 ± 0.076.
For EGGEAEFIFGTYNMIDA [ARP7] the same measures were 2.79 ± 0.059, 2.66 ± 0.055, 2.52 ± 0.054 and 2.83 ± 0.045.
For EGLCIVAGSKCWAVRAD [RRP45] the same measures were 2.38 ± 0.073, 2.43 ± 0.071, 2.53 ± 0.079 and 2.57 ± 0.07.
Taken in the same sequence, the figures for EGMFANANRVFRTRFQD [SMC2] were 2.26 ± 0.097, 1.76 ± 0.089, 2.68 ± 0.25 and 2.31 ± 0.078.
Turning to EGQIIQRSNISTAIKSL [CDC53], the protein stability index reads like this: (doa10∆) 1.55 ± 0.056; (pdr5∆) 2.33 ± 0.099; (san1∆) 2.46 ± 0.16; (ubr1∆) 1.79 ± 0.079.
With EGSWDRGIPRISTLFQR [PRP8], the protein stability index is, setting by setting: (doa10∆) 2.79 ± 0.19; (san1∆) 3.24 ± 0.14; (ubr1∆) 3.06 ± 0.11.
In turn, EGTRNRFSYSPPKEGNY [YMR129W/POM152] showed a protein stability index (doa10∆) of 3.19 ± 0.13, a protein stability index (pdr5∆) of 3.06 ± 0.062, a protein stability index (san1∆) of 2.88 ± 0.043 and a protein stability index (ubr1∆) of 3.13 ± 0.042.
Turning to EGVEYSFLHVDDKLAYI [POP8], the protein stability index runs as follows: (doa10∆) 1.86 ± 0.097; (pdr5∆) 2.1 ± 0.088; (san1∆) 1.86 ± 0.11; (ubr1∆) 2.04 ± 0.074.
Take EHGLQITHTENYNDLIV [BRN1]: the protein stability index is, setting by setting: (doa10∆) 3.5 ± 0.27; (pdr5∆) 2.81 ± 0.18; (ubr1∆) 2.77 ± 0.089.
On to EHGYQSRGFEVMYNGHT [RPB2], for which the protein stability index amounted to 2.92 ± 0.15 (doa10∆), 2.62 ± 0.18 (pdr5∆), 2.88 ± 0.15 (san1∆) and 2.61 ± 0.19 (ubr1∆).
For EHIKEGSEIAISSLGYR [SWI3] the same measures were 2.78 ± 0.055, 3.02 ± 0.063, 2.99 ± 0.05 and 2.95 ± 0.052.
Consider EIEMKNKLEKLNSLLTY [SMC4], for which the protein stability index runs as follows: (doa10∆) 1.71 ± 0.055; (pdr5∆) 1.87 ± 0.058; (san1∆) 1.85 ± 0.1; (ubr1∆) 1.61 ± 0.04.
For EIEQPVTTFVFTGQGSQ [FAS1] the same measures were 2.86 ± 0.1, 2.91 ± 0.075, 2.49 ± 0.14 and 2.24 ± 0.066.
As for EIFDVTSNGLKKNPNWL [FAS1], the protein stability index (doa10∆) worked out at 3.54 ± 0.16, the protein stability index (pdr5∆) was found to be 3.46 ± 0.11, the protein stability index (san1∆) is 2.64 ± 0.18 and the protein stability index (ubr1∆) was determined as 3.37 ± 0.06.
In turn, EIKDAETSCDNYHPMNI [SMC4] showed a protein stability index (doa10∆) of 2.64 ± 0.057, a protein stability index (pdr5∆) of 2.83 ± 0.055, a protein stability index (san1∆) of 3.15 ± 0.043 and a protein stability index (ubr1∆) of 2.98 ± 0.044.
For EIKDGRSLFLRNRGKIH [YMR153W/NUP53] the same measures were 2.01 ± 0.095, 2.2 ± 0.068, 1.54 ± 0.16 and 2.46 ± 0.066.

Values taken from the supplement of paper PMC9732359.
